The values below come from doi:10.1101/382655.

In data set [1] the target is T1, Integration host factor (IHF) (UniProt P0A6X7;P0A6Y1 2-99;1-94). The data set can be described thus: equilibrium fluorescence titration.
Data set [2] addresses T1, Integration host factor (IHF). The data set can be described thus: fluorescence lifetime FRET.
Data set [3] has the same target. The data set can be described thus: equilibrium fluorescence titration, extrapolated.
For data set [4] the target is unchanged. The data set can be described thus: fluorescence lifetime FRET. The source holds these as a separate data set.

Like-named read-outs stand apart in the source and are kept apart here.

T1 sequence (P0A6X7 2-99, chain 1 of 2): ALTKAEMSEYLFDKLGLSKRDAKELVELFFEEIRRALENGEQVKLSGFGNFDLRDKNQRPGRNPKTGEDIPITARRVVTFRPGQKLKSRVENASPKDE
T1 sequence (P0A6Y1 whole entry, chain 2 of 2): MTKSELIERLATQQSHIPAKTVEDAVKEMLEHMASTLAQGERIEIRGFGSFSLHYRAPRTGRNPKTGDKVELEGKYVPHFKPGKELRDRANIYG

B1: H1 (design II) (dsDNA)
DNA 1: GGCCATGCAGTCACTATGAATCAACTACTTAGACC
DNA 2: GGTCTAAGTAGTTGATTCATAGTGACTGCATGGCC
modifications: 3' phosphate link on bottom strand (to dye)
With B1, binding in data set [1] was characterised by a dissociation constant (Kd) of 1990 ± 50 nM.

B2: H1_CTloop (design I) (dsDNA)
DNA 1: TGGCCATGCAGTCACTATGAATCAACTACTTAGACC
DNA 2: TGGTCTAAGTAGTTGATTCATTCTGACTGCATGGCC
B2: the Kd (usually the constant that tells how readily two partners part at equilibrium) in data set [1] turned out to be 16 ± 3 nM.

B3: H1 (design I) (dsDNA)
DNA 1: TGGCCATGCAGTCACTATGAATCAACTACTTAGACC
DNA 2: TGGTCTAAGTAGTTGATTCATAGTGACTGCATGGCC
As to B3, the binding result in data set [2] is “binds”.

B4: H' (design I) (dsDNA)
DNA 1: TGGCCAAAAAAGCATTGCTTATCAATTTGTTGCACC
DNA 2: TGGTGCAACAAATTGATAAGCAATGCTTTTTTGGCC
For B4, the figures for the dissociation constant Kd in data set [1] and in data set [3] were 1900 ± 100 nM and 0.023 nM, respectively.

B5: H'44A (design I) (dsDNA)
DNA 1: TGGCCAAAAAAGCATTGCTTATCAATTTGTAGCACC
DNA 2: TGGTGCTACAAATTGATAAGCAATGCTTTTTTGGCC
B5: the binding result in data set [4] is “binds”.

B6: H' (design II) (dsDNA)
DNA 1: GGCCAAAAAAGCATTGCTTATCAATTTGTTGCACC
DNA 2: GGTGCAACAAATTGATAAGCAATGCTTTTTTGGCC
modifications: 3' phosphate link on bottom strand (to dye)
B6 gave a Kd in data set [1] of 1500 ± 200 nM.
